For this assay, the target named is SARS-COV-2 RBD (SARS-COV-2, UniProt P0DTC2 319-539). Put plainly: ELISA, RBD coated. (In general: An ELISA detects its analyte on a solid surface through an enzyme-linked reagent.)

Positions count from the first letter of the chain named.

B1: C094 (antibody, V domains shown)
VH: QVQLQESGPGLVKPSETLSLTCNVSGVSISTDYWSWIRQPPGKGLEWIGYIYYSGNTKDYNPSLKSRVTISVDTSKNQFSLMLSSVTAADTAVYYCARHYDILTSLSWFDPWGQGTLVTVSS
VL: QSVLTQPPSVSAAPGQKVTISCSITNSNLGNIYVSWYQQLPGTAPKLLIYGNNKRPSGIPDRFSGSKSGTSATLGITGLQTGDEAHYYCGTWDSSLSANWVFGGGTKLTVL
As to B1, a half-maximal effect (EC50) was put at 1.67 ng/mL.

B2: C513 (antibody, V domains shown)
VH: EVQLLESGGGLVQPGGSLRLSCVASGFSFSTYAMSWVRQAPGQGLEWVSTITGTSIGTYYADSVKGRFTISRDNSKNTVFLQMKSLRAEDAAVYYCANHPLASGDEYYYYYMDVWGKGTTVTVSS
VL: EIVLTQSPDTLSLSPGERATLSCRASQSVHSKQLAWYQQKPGQAPRLLIYGASSRATGIPDRFSGSGSGTDFTLTISRLEPEDFAVYYCQQYGSIRALTFGGGTKVEIK
As for B2, the EC50 was determined as 1.31 ng/mL.

B3: C080 (antibody, V domains shown)
VH: EVQLVQSGAEVKKPGESLNISCKASGYSFTIYWIAWVRQLPGKGLEWMGIIYPGDSDTRYSPSFQGQVTISADKSISTAYLQWRSLKASDSAVYYCARGVAVDWYFDLWGRGTLVTVSS
VL: QSVLTQPPSVSGAPGQRVTISCAGSSSNIGAGFDVYWYQQLPGTAPKLLIYGNNNRPSGVPDRFSGSKSGTSASLAITGLQAEDEADYYCQSSGSVLSDLYVFGTGTKVTVL
In turn, B3 returned an EC50 of 1.97 ng/mL.

B4: C062 (antibody, V domains shown)
VH: EVQLVESGGGLVKPGGSLRLTCAASGFTFSTYSMNWVRQAPGKGLEWVSSISSSSSYIYYADSVKGRFTISRDNAKNSLYLQMNSLRAEDTAVYYCARERGYYGGKTPPFLGGQGTLVTVSS
VL: NFMLTQPHSVSESPGKTVTISCTGSSGSIASNYVQWYQQRPGSAPTTVIYEDNQRPSGVPDRFSGSIDSSSNSASLTISGLKTEDEADYYCQSYDSSNYWVFGGGTKLTVL
As to B4, the midpoint of the response, the EC50, lay at 4.69 ng/mL.

B5: C514 (antibody, V domains shown)
VH: EVQLVESGGGLVQPGGSLRLSCAASEFIVTRNYMSWVRQAPGKGLEWVSLIYPGGSTFYADSVKGRFTISRDNSKNTLFLHMNSLRAEDTAVYYCARDLAGRLDYWGQGTLVTVSS
VL: DIQMTQSPSSLSASVGDRVTITCQASQDINNFLNWYQQKPGKAPKLLIYDASNLETGVPSRFSGSGSGTDFTFTISSLQPEDIAIYYCQQYDSLSRLTFGGGTKVEIK
In turn, B5 had an EC50 of 0.82 ng/mL. This EC50 lies about 5.7-fold lower than the previous one.

B6: C088 (antibody, V domains shown)
VH: QVQLVQSGAEAKKPGASVKVSCKTSGYTFTNYFMHWVRQAPGQGPEWMGIIDSSDGGASYAQKFQGRVTMTRDTSTSTVYMELRSLKFEDTAVYYCARASTSTTSWSDALSLGSWGQGTLVTVSS
VL: QSVLTQPPSVSGAPGQRVTISCTGSSSNIGGGSVVHWYQQLPGTAPKLLIYANSNRPSGVPDRFSGSKSGTSASLAIAGLQAEDEADYYCQSWDNGLSASGVVFGGGTKLTVL
Take B6: the EC50 was found to be 2.44 ng/mL.

B7: C521 (antibody, V domains shown)
VH: EVQLVESGGGLVRPGGSLTLSCVASGFTVGSNFMSWVRQAPGKGLEWVSLIYNSGGTHYADSVKGRFTISRDRSKNTLYLQMNSLRAEDTAIYYCANHGYYYYMDVWGKGTTVTVS
VL: QSALTQPASVSGSPGQSITISCTGTGSDIGAYNYVSWHQHHPGKAPKLIIYDVSNRPSGVSNRFSGSKSGNTASLTISGLQAEDEADYYCTSYTNTTTPWVFGGGTKVTVL
Consider B7, for which the EC50 came to 6.9 ng/mL.

B8: C051 (antibody, V domains shown)
VH: EVQLVESGGGLIQAGGSLRLSCAASGFGVRNNYMSWVRQAPGKGLEWVSVIYSGGTTYYADSVKGRFTISRDNSKNTVFLQMNSLRAEDTAVYYCAREGDVEGFSDLWSGYSRDRYYFDYWGQGTLVTVSS
VL: QSALTQPASVSGSPGQSITFSCTGTSSDVGGYNYVSWYQQYPGKAPKLLIYDVTNRPSGVSDRFSGSKSGNTASLTISGLQAEDEADYYCSSFTSSNTRVFGTGTKVTVL
In the case of B8, the EC50 was 1.65 ng/mL. This EC50 is about 4.2-fold lower than that of the molecule before.

B9: C053 (antibody, V domains shown)
VH: B8 VH with A14P, G28I, R30S, E46D, V78L, F79Y, F104Y, S105H, L107S
VL: QSALTQPASVSGSPGQSITISCTGSSSDVGGYNFVSWYQQHPGRAPKLMIYDVSNRPSGVSNRFSGSKSGNTASLTISGLQVEDEADYYCSSYTNNNTRVFGTGTKVTVL
On to B9, for which the EC50 was 1.53 ng/mL.

B10: C054 (antibody, V domains shown)
VH: EVQLVESGGGLIQPGGSLRLSCAASGFTVSNNYMSWVRQAPGKGLEWVSVIYSGGSTYDADSVKGRFTISRDNSKNTLYLQMNSLSAEDTAVYYCAREGDVEGYYDFWSGYSRDRYYFDYWGQGTLVTVSS
VL: B8 VL with F20I, Y41H, L49M, T54S, D62N, F93Y, N97S, T98A
Consider B10, for which the EC50 was determined as 1.58 ng/mL.

B11: C052 (antibody, V domains shown)
VH: B10 VH with Q13R, T28S, S56T, D59Y, T68N, L78V, S86R, T125A
VL: B9 VL with S25T, F34Y, R44K, V82A, S91N, N95S
The molecule B11 displayed an EC50 of 1.23 ng/mL.

B12: C058 (antibody, V domains shown)
VH: QVQLVQSGAEVKKPGASVKVSCKASGYIFTDYSMHWVRQAPGQGLEWIGWVNPNSGGTNYAQKFQGWVTMARDTSITTVYMELSRLKSDDTAVYFCARGPLFHRLVYDFWSGYHDGFDMWGQGTMVTVSS
VL: QSALTQPASVSGSPGQSITISCTGTSSDVGGYKFVSWYQQHPGKAPKLMIYEVSNRPSGVSNRFSGSKSGNTASLTISGLQAEDEADYYCNSYTSSSTWVFGGGTKLTVL
The molecule B12 gave an EC50 of 2.28 ng/mL.

B13: C057 (antibody, V domains shown)
VH: QVQLVQSGAEVKRPGASVKLSCKASGYIFTDYSIHWVRQAPGQGLEWMGWVNPNSGGGNSAQKFMDWVTMARDTSITTVYMELSRLRSDDTAVYYCARGPLFHKLVYDSWSGYHDGFDIWGQGTMVTVSS
VL: B12 VL with G31A, K47Q, M49I, N91S, S95N, S96A, K106E
The molecule B13 gave an EC50 of 2.31 ng/mL.

B14: C059 (antibody)
chain 1: QVQLVQSGAEVKKPGASIKVSCKASGYTFTDYSMHWVRQAPGQGLEWMGWINPNSGGTKYAQKFQGWVTMTRDMSITTVYMELTRLRSDATAVFYCARGPLFHKLVYDSWTGYHDGFDIWGQGTMVTVSS
chain 2: B12 VL with K33N, F34Y, Q40H, H41Y, S54T, N55H, N91S, Y93S, S95N, L107M
B14 yielded a 50% effective concentration (EC50) of 1.88 ng/mL.

B15: C069 (antibody, V domains shown)
VH: QVQLVQSGAEVKKPGSSVNVSCKASGGTFSTYAIHWVRQAPGQGLEWMGGIIPLFHTANYAQKFQGRVTITADESTSTAYMELSSLRSEDTAMYYCAINTQWDLVPRWGRGTLVTVSS
VL: EIVLTQSPGTLSLAPGERATLSCRASQSVNSNYLAWYQQKPGQAPRLLIYGASSRATGIPDRFSGSGSGTDFTLTISRLEPEDFAVYYCQQYGFSLYSFGQGTKLEIK
For B15, the EC50 is 381 ng/mL.

B16: C539 (antibody, V domains shown)
VH: EVQLVESGGGLVQPGRSLRLSCAASGFTFDDYALHWVRQAPGKGLEWVSGISWNGDSIGYADSVKGRFTISRDNAKNSLSLQMNSLTAEDTALYYCAKGVEYSSSSNCDYWGQGTLVTVSS
VL: DIQMTQSPSSVSASVGDRVTITCRASQDISSWLAWYQQKPGKAPKLLISLASGLQSGVPSRFSGSGSETDFTLTISSLQPEDFATYYCQQTNSFPLTFGGGTKVEI
Molecule B16 registered an EC50 of 1.3 ng/mL.

B17: C518 (antibody, V domains shown)
VH: EVQLVESGGGLIQPGGSLRLSCAASGITVSSNYMSWVRQAPGKGLEWVSVMYAGGSSFYADSVKGRFTISRDNSKNTLYLQMNSLRVEDTAVYYCARDLIALGVDVWGQGTTVTVSS
VL: DIQLTQSPSFLSASVGDRVTITCRASQGISSYLAWYQQKPGKAPKLLIYAASTLQSGVPSRFSGSGSGTEFTLTISSLQPEDFATYYCQLLNSYPMCSFGQGTKLEIK
For the molecule B17, a half-maximal response (EC50) required 1.13 ng/mL.

As usually defined, the EC50 is the concentration that produces a half-maximal response.

The record behind these values is patent publication US20240218057A1 (ROCKEFELLER UNIVERSITY, published 2024).
